From US6750057

How the values were obtained:
MBP-XB3 = system: T1, MBP-XB3
T1 sequence: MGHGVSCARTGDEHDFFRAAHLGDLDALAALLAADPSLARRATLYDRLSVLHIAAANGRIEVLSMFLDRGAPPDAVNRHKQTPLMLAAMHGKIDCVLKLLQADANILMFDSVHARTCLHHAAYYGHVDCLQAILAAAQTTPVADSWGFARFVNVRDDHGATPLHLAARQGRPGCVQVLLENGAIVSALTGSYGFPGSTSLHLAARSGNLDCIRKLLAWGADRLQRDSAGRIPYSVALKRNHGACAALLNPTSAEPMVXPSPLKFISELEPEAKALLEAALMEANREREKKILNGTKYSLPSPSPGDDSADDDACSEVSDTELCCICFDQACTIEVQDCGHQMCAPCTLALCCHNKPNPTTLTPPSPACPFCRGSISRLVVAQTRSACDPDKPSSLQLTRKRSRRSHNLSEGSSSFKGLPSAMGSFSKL

## GST-XA21
MBP-XB3
  transphosphorylation assay with [gamma-32P]ATP: GST-XA21 phosphorylated itself and MBP-XB3, but not MBP alone
Native MBP [MBP: P0AEX9]
  transphosphorylation assay with [gamma-32P]ATP: GST-XA21 phosphorylated itself and MBP-XB3, but not MBP alone
